Measured values reported in the RNAGym collection of RNA variant scans (doi:10.1093/molbev/msab373).

B1: Azoarcus group I ribozyme (parent)
chain: GUGCCUUGCGCCGGGAAACCACGCAAGGGAUGGUGUCAAAUUCGGCGAAACCUAAGCGCCCGCCCGGGCGUAUGGCAACGCCGAGCCAAGCUUCGGCGCCUGCGCCGAUGAAGGUGUAGAGACUAGACGGCACCCACCUAAGGCAAACGCUAUGGUGAAGGCAUAGUCCAGGGAGUGGCGAAAGUCACACAAACCGG

Variants of: B1
Experiment: reverse-splicing fitness (ratio to wild type); higher = more active; in vitro selection; Mg2+ level not given
Method in brief: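 An in vitro group I ribozyme library with randomized positions was T7-transcribed and gel-purified. In triplicate, 10 pmol RNA in EPPS pH 7.5 was reacted with 50 pmoles of a 30-nt RNA substrate for 1 h at 37 °C across several added MgCl2 levels (1–48 mM), then stopped with EDTA. Products were reverse transcribed from a substrate-complementary primer, PCR-amplified and sequenced (HiSeq 4000). Fitness is a variant's read proportion after selection over that before, normalised to wild type.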

| Variant | reverse-splicing fitness |
| --- | --- |
| GUGCCUUGCGCCGGGAAACCACGCAAGGGAUGGUGUCAAAUUCGGCGAAACCUAAGCGCCCGCCCGGGCGUAUGGCAACGCUGAGCCAAGCUUCGGCGCCUGCGCCGAUGAAGGUGUAGAGACUAGACGGCACCCACCUAAGGCUAACGGUAUGGUGAAGGCAUAGUCUAGGGAGAGGCGAAAGUCACACAAACCGG | 0.00782 |
| GUGCCUUGCGCCGGGAAACCACGCAAGGGAUGGUGUCAAAUUCGGCGAAACCUAAGCGCCCGCCCGGGCGUAUGGCAACGCUGAGCCAAGCUUCGGCGCCUGCGCCGAUGAAGGUGUAGAGACUAGACGGCACCCACCUAAGGCUAACGGUAUGGUGAAGGCAUAGUCUAGGGAGCGGCGAAAGUCACACAAACCGG | 0.0114 |
| GUGCCUUGCGCCGGGAAACCACGCAAGGGAUGGUGUCAAAUUCGGCGAAACCUAAGCGCCCGCCCGGGCGUAUGGCAACGCUGAGCCAAGCUUCGGCGCCUGCGCCGAUGAAGGUGUAGAGACUAGACGGCACCCACCUAAGGCUAACGAUAUGGUGAAGGCAUAGUCCAGGGAGAGGCGAAAGUCACACAAACCGG | 0.055 |
| GUGCCUUGCGCCGGGAAACCACGCAAGGGAUGGUGUCAAAUUCGGCGAAACCUAAGCGCCCGCCCGGGCGUAUGGCAACGCUGAGCCAAGCUUCGGCGCCUGCGCCGAUGAAGGUGUAGAGACUAGACGGCACCCACCUAAGGCUAACGAUAUGGUGAAGGCAUAGUCCAGGGAGCGGCGAAAGUCACACAAACCGG | 0.0543 |
| GUGCCUUGCGCCGGGAAACCACGCAAGGGAUGGUGUCAAAUUCGGCGAAACCUAAGCGCCCGCCCGGGCGUAUGGCAACGCUGAGCCAAGCUUCGGCGCCUGCGCCGAUGAAGGUGUAGAGACUAGACGGCACCCACCUAAGGCUAACGAUAUGGUGAAGGCAUAGUCCAGGGAGGGGCGAAAGUCACACAAACCGG | 0.0221 |
| GUGCCUUGCGCCGGGAAACCACGCAAGGGAUGGUGUCAAAUUCGGCGAAACCUAAGCGCCCGCCCGGGCGUAUGGCAACGCUGAGCCAAGCUUCGGCGCCUGCGCCGAUGAAGGUGUAGAGACUAGACGGCACCCACCUAAGGCUAACGAUAUGGUGAAGGCAUAGUCUAGGGAGUGGCGAAAGUCACACAAACCGG | 0.00825 |
| GUGCCUUGCGCCGGGAAACCACGCAAGGGAUGGUGUCAAAUUCGGCGAAACCUAAGCGCCCGCCCGGGCGUAUGGCAACGCUGAGCCAAGCUUCGGCGCCUGCGCCGAUGAAGGUGUAGAGACUAGACGGCACCCACCUAAGGCUAACGAUAUGGUGAAGGCAUAGUCGAGGGAGUGGCGAAAGUCACACAAACCGG | 0.00614 |
| GUGCCUUGCGCCGGGAAACCACGCAAGGGAUGGUGUCAAAUUCGGCGAAACCUAAGCGCCCGCCCGGGCGUAUGGCAACGCUGAGCCAAGCUUCGGCGCCUGCGCCGAUGAAGGUGUAGAGACUAGACGGCACCCACCUAAGGCUAACGAUAUGGUGAAGGCAUAGUCAAGGGAGUGGCGAAAGUCACACAAACCGG | 0.00771 |
| GUGCCUUGCGCCGGGAAACCACGCAAGGGAUGGUGUCAAAUUCGGCGAAACCUAAGCGCCCGCCCGGGCGUAUGGCAACGCUGAGCCAAGCUUCGGCGCCUGCGCCGAUGAAGGUGUAGAGACUAGACGGCACCCACCUAAGGCUAACGAUAUGGUGAAGGCAUAGUCAAGGGAGAGGCGAAAGUCACACAAACCGG | 0.0106 |
| GUGCCUUGCGCCGGGAAACCACGCAAGGGAUGGUGUCAAAUUCGGCGAAACCUAAGCGCCCGCCCGGGCGUAUGGCAACGCUGAGCCAAGCUUCGGCGCCUGCGCCGAUGAAGGUGUAGAGACUAGACGGCACCCACCUAAGGCUAACGAUAUGGUGAAGGCAUAGUCAAGGGAGGGGCGAAAGUCACACAAACCGG | 0.00546 |
| GUGCCUUGCGCCGGGAAACCACGCAAGGGAUGGUGUCAAAUUCGGCGAAACCUAAGCGCCCGCCCGGGCGUAUGGCAACGCUGAGCCAAGCUUCGGCGCCUGCGCCGAUGAAGGUGUAGAGACUAGACGGCACCCACCUAAGGCUAACGAUAUGGUGAAGGCAUAGUCAAGGGAGCGGCGAAAGUCACACAAACCGG | 0.00744 |
| GUGCCUUGCGCCGGGAAACCACGCAAGGGAUGGUGUCAAAUUCGGCGAAACCUAAGCGCCCGCCCGGGCGUAUGGCAACGCUGAGCCAAGCUUCGGCGCCUGCGCCGAUGAAGGUGUAGAGACUAGACGGCACCCACCUAAGGCUAACGCUAUGGUGAAGGCAUAGUCCAGGGAGUGGCGAAAGUCACACAAACCGG | 0.626 |
| GUGCCUUGCGCCGGGAAACCACGCAAGGGAUGGUGUCAAAUUCGGCGAAACCUAAGCGCCCGCCCGGGCGUAUGGCAACGCUGAGCCAAGCUUCGGCGCCUGCGCCGAUGAAGGUGUAGAGACUAGACGGCACCCACCUAAGGCGAACGCUAUGGUGAAGGCAUAGUCCAGGGAGGGGCGAAAGUCACACAAACCGG | 0.125 |
| GUGCCUUGCGCCGGGAAACCACGCAAGGGAUGGUGUCAAAUUCGGCGAAACCUAAGCGCCCGCCCGGGCGUAUGGCAACGCUGAGCCAAGCUUCGGCGCCUGCGCCGAUGAAGGUGUAGAGACUAGACGGCACCCACCUAAGGCUAACGGUAUGGUGAAGGCAUAGUCGAGGGAGAGGCGAAAGUCACACAAACCGG | 0.00745 |
| GUGCCUUGCGCCGGGAAACCACGCAAGGGAUGGUGUCAAAUUCGGCGAAACCUAAGCGCCCGCCCGGGCGUAUGGCAACGCUGAGCCAAGCUUCGGCGCCUGCGCCGAUGAAGGUGUAGAGACUAGACGGCACCCACCUAAGGCUAACGGUAUGGUGAAGGCAUAGUCGAGGGAGCGGCGAAAGUCACACAAACCGG | 0.00478 |
